Measured values taken from US7129072.

Target: FGFR1 D2-D3 (residues 142-365 of human FGFR1) (human) (UniProt P11362)
Assay: calculated from the X-ray crystal structure

FGFR1 D2-D3 (residues 142-365 of human FGFR1) (human), sequence (P11362 149-359 limits assumed): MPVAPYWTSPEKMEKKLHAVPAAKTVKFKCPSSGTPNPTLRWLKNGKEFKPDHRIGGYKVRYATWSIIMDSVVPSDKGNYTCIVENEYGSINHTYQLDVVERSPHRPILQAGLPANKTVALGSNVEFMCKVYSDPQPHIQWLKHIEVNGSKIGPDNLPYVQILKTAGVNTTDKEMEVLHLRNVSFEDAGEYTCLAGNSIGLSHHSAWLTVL

FGF1 (from UniProt P05230 21-155) (ligand)
total accessible surface area buried in the complex: 2200 Å^2
